# Data taken from patent US20260028390A1, “ALPHA1-ANTITRYPSIN FOR USE IN THE TREATMENT OF DISEASES OR DISORDERS OF THE NERVOUS SYSTEM SUCH AS CHRONIC INFLAMMATORY DEMYELINATING POLYNEUROPATHY” (Ageronix SA, priority 2022, published 2026).
# Experiments:
# [1] = target: T1, Recombinant Human TACE/ADAM17 (Homo sapiens, UniProt P78536); assay: Cell free TACE/ADAM17 activity; assay type: biochemical
# T1 construct: purchased R&D Systems 930-ADB-010
# Description: TACE activity and its inhibition by human AAT (AAT) was performed with Recombinant Human TACE/ADAM17 kit (930-ADB and ES003, R&D Systems) in black 96-well immuno plates (437111, ThermoFisher Scientific). The enzymatic activity of TACE/ADAM17 was measured by mixing 0.005 μg of rhTACE with 10 μM of Mca-PLAQAV-Dpa-RSSSR-NH2 fluorogenic peptide substrate III in assay buffer (25 mM Tris, 2.5 μM ZnCl2, 0.005% Brij-35 (w/v), pH 9.0) to a final volume of 100 μl. AAT (Sigma Aldrich, batch A6150) was resuspended in water (vehicle), control TACE/ADAM17 activity was assessed in presence of the vehicle (amount used for AAT 100 μM). AAT was added at different concentration (0, 6.25, 12.5, 25, 50 and 100 μM) to assess its dose-dependent inhibition of TACE/ADAM17. All conditions were performed in triplicates. Activity was measured as relative fluorescent unit (RFU) in a kinetic mode (9 time points over 5 min) with a SpectraMax iD3 Microplate Reader (low PMT gain, is exposition, top read at 1 mm, wavelength: excitation 320 nm, emission 405 nm). Bar graph as percentage of control activity was obtained by averaging the values obtained over the 5 min for each of the condition.
# TACE activity is assessed according to the manufacturer's instruction (Recombinant Human TACE/ADAM17 kit, 930-ADB, R&D Systems) in kinetic mode, without or with different AAT concentration. All conditions were done in triplicates and are shown as mean±SD (FIGS. 5A, 5B and 5C).
# ADAM-17 activity and its inhibition by human peptide 8 was measured with Recombinant Human ADAM-17 kit (Recombinant Human TACE/ADAM17 Protein, CF: 930-ADB-010 and Mca-PLAQAV-Dpa-RSSSR-NH2 Fluorogenic Peptide Substrate:ES003; R&D Systems) in black 96-well immunoplates (437111; Thermo Fisher Scientific). The enzymatic activity of ADAM-17 was measured by mixing 0.005 μg of rhADAM-17 with 10 μM of Mca-PLAQAV-Dpa-RSSSR-NH2 fluorogenic peptide substrate III in assay buffer (25 mM Tris, 2.5 μM ZnCl2, 0.005% Brij-35 (w/v), pH 9.0) to a final volume of 100 μL. Peptide 8 (Syngene) was dissolved in DMSO and diluted to the desired concentration in assay buffer. Control ADAM-17 activity was assessed in the presence of the assay buffer. […] All conditions were performed in triplicate. Activity was measured as relative fluorescent units (RFU) in endpoint mode (5 min) with a SpectraMax iD3 Microplate Reader (automatic PMT gain, wavelengths: excitation 320 nm, emission 405 nm).
# [2] = target: Recombinant Human TACE/ADAM17 Protein (R&D Systems 930-ADB) (human) (UniProt P78536); assay: cell-based or functional assay
# Recombinant Human TACE/ADAM17 Protein (R&D Systems 930-ADB) (human), sequence (P78536 215-671 limits assumed): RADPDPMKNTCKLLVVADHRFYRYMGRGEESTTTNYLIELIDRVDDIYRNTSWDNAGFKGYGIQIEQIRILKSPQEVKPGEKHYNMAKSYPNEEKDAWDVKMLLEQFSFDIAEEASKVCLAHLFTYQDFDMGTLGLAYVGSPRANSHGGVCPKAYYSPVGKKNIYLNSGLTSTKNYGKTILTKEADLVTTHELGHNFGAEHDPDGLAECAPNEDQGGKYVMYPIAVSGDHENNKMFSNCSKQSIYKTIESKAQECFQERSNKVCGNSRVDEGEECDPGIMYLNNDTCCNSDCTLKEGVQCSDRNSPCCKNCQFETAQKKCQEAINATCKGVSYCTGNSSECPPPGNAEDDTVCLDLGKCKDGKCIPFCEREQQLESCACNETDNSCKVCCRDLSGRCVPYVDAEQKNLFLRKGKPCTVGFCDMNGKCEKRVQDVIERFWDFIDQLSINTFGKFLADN
# T1 sequence (P78536 215-671 limits assumed): as above
Substance,"inhibition of ADAM17 activity ([1]; peptide 8 at concentration of 100 (μM), experiment 2) [%]","inhibition of ADAM17 activity ([1]; peptide 8 at concentration of 200 (μM), experiment 2) [%]","inhibition of ADAM17 activity ([1]; peptide 8 at concentrations up to 50 μM, vs DMSO)","IC50 of inhibition of TACE activity, cell-free fluorogenic peptide substrate assay [2] [µM]"
"Ac-YRAHQGE-NH2 [Peptide 8, AAT-related peptide derived from immunoregulatory sites on the surface of AAT]",36,65,No significant inhibition,–
"human alpha1-antitrypsin (AAT) (Sigma Aldrich, batch A6150) (from UniProt P01009 25-418)",–,–,–,15.3
